Data reported in patent publication US20060148057A1, “Thioredoxin mutants and uses thereof” (priority 2002, published 2006).
Residue numbers refer to the chain shown, from its start. In names and notes the source's numbering stands.

B1: thioredoxin (protein)
chain: MVKQIESKTAFQEALDAAGDKLVVVDFSATWCGPCKMIKPFFHSLSEKYSNVIFLEVDVDDCQDVASECEVKCMPTFQFFKKGQKVGEFSGANKEKLEATINELV
modifications: Flag tag or GST fusion
notes: Flag-tagged or GST fusion
B2: Trx-C35S: C35S single mutant of Trx at the catalytic site, SEQ ID NO:3 (protein)
chain: B1 chain with C35S
B3: Trx-C32S: C32S single mutant of Trx at the catalytic site, SEQ ID NO:2 (protein)
chain: B1 chain with C32S

Columns and labels:
BAEC = assay: GFP co-transfection killing assay, ASK1-induced EC death; type: cell-based, Bovine; details: for inhibitory effect on ASK1-induced apoptosis under TNF treatment: TNF 10 ng/ml
Description: Trx inhibits ASK1-induced JNK activation and caspase 3 activity. BAEC were co-transfected with ASK1 and Trx constructs in 1:1 ratio as indicated: control vector alone (Ctrl), ASK1 with VC, Trx-WT, Trx-CS, Trx-C32S or Trx-C35S. 24 h post-transfection, cell lysates were used to examine JNK and caspase 3 activity. […] JNK activity was measured by an in vitro kinase assay GST-c-Jun as a substrate. Trx expression was determined by Western blot anti-Flag. […] Caspase 3 activity was measured by Sigma's Caspase 3 Fluorometric Assay Kit in the absence or presence of caspase 3 inhibitor Ac-DEVD-CHO. Assay was performed as duplicates. Caspase 3 activities were normalized with the Ctrl group (as zero). Data are presented from mean of two independent experiments. […] 6-well BAEC were co-transfected with a GFP expression construct and ASK1/Trx constructs as indicated (1 μg GFP, 1 μg ASK1, 1 μg Trx, total DNA was kept to 3 μg by adding VC): control vector alone (Ctrl), ASK1 with VC, Trx-WT, Trx-CS, Trx-C32S or Trx-C35S. Cells were cultured in the presence or absence of TNF (10 ng/ml). 48 h after transfection, GFP-positive cells were counted as survival cells. The survival rate is shown (Ctrl group as 100%). Data are presented from mean of four independent experiments. […] BAEC were transfetced as in FIG. 6C. 6-well BAEC were transfetced with GFP (1 μg) and Trx -expressing construct (1 μg each) as indicated. 24 h after transfection, cells were either left untreated or treated with TNF (10 ng/ml) plus CHX (10 μg/ml) for 24 h. GFP-positive cells were counted as survival cells. […] Data are presented from mean of four independent experiments.
Quantitation of cell killing: Cell killing assay was performed as described previously with a modification (Slowik M R et al. Evidence that tumor necrosis factor triggers apoptosis in human endothelial cells by interleukin-1-converting enzyme-like protease- dependent and -independent pathways. Lab Invest. 77:257-67 (1997)). EC were transfected with a combination of GFP reporter plasmid and the control vector or experimental expression plasmids for ASK1 and Trx at 1:1 ratio as indicated. GFP-positive cells were visualized under a fluorescence microscope and counted as number of survival cells.
ASK1-induced EC death was measured by a GFP co-transfection killing assay as previously described with minor modifications (Slowik M R Evidence that tumor necrosis factor triggers apoptosis in human endothelial cells by interleukin-1-converting enzyme-like protease- dependent and -independent pathways. Lab Invest. 77:257-67 (1997)). Overexpression of ASK1 in EC (BAEC or HUVEC) induced 60% cell death at 48 h post-transfection, i.e., 40% of GFP-positive (survival) EC compared to the control cells (Ctrl as 100% survival, FIG. 6C).

ASK1 [1] = assay: Association of Trx with ASK1 in vivo in BAEC (co-immunoprecipitation); type: binding, Bovine; details: for association of Flag-Trx with HA-ASK1 after TNF treatment: TNF 10 ng/ml for 15 min; for binding of Flag-Trx to HA-ASK1: resting EC, co-immunoprecipitation
Description: (§1) Immunoprecipitation and immunoblotting EC after various treatments were washed twice with cold PBS and lysed in 1.5 ml of cold lysis buffer (50 mM Tris-HC, pH 7.6, 150 mM NaCl, 0.1% Triton X-100, 0.75% Brij 96, 10 μg/ml aprotinin, 10 μg/ml leupeptin, 2 mM PMSF, 1 mM EDTA) for 20 min on ice. Protein concentrations were determined with a Bio-Rad kit. For immunoprecipitation to analyze protein interaction in vivo, 400 μg of cell lysate supematant were incubated with 5 μg of the first protein-specific antiserum (e.g. anti-Trx from Medical & Biological Laboratory) for 2 h with 50 μl of GammaBind plus Sepharose. Immune complexes were collected after each immunoprecipitation by centrifugation at 14,000× g for 10 min followed by 4 washes with lysis buffer. The immune complexes were subjected to Western blot with the second protein (e.g., ASK1)-specific antibody (Santa Cruz Biotech, Santa Cruz, Calif.). The chemiluminescence was detected using an ECL kit according to the instructions of the manufacturer (Amersham Life Science, Arlington Heights, Ill.). For Flag-tagged and HA-tagged proteins, anti-Flag M2 antibody (Sigma) and anti-HA antibody (Roche Diagnostics) were used, respectively.
TNF dissociates wild type Trx but not Trx-C32S or Trx-C35Sfroin ASK1 in vivo. Trx-C32S and Trx-C35S were examiner to determine whether they constitutively bind to ASK1 in vivo. Regulation of ASK1 by Trx was first examined to determine if such regulation is ROS-dependent in EC. BAEC were either untreated or treated with N-acetyl-cysteine (Nac, 1 mM) or vehicle for 60 min prior to TNF-α (10 ng/ml) stimulation for 15 min. TNF-induced ASK1 activation was measured by an in vitro kinase assay using GST-MKK4 (JNKK1) fusion protein as a substrate. TNF activated ASK1 in EC (FIG. 5A). […] Association of ASK1 with Trx was easily detected in untreated EC cells (FIG. 5B, Ctrl). […] In contrast, Nac pretreatment prevented TNF-induced dissociation of ASK1 from Trx. Similar results were obtained in human EC (HUVEC).
To examine association of Trx mutants with ASK1 in vivo, the Flag-tagged Trx construct (WT, CS, C32S or C35S) was co-transfected with HA-ASK1 into BAEC and the interaction of these Trx proteins with ASK1 were examined by co-immunoprecipitation assay. As expected, Trx-WT, Trx-C32S and Trx-Trx-C35S (but not Trx-CS) bound to ASK1 in resting EC (FIG. 5C).
Target sequence in this assay (Q99683 whole entry, the tested form may be a part): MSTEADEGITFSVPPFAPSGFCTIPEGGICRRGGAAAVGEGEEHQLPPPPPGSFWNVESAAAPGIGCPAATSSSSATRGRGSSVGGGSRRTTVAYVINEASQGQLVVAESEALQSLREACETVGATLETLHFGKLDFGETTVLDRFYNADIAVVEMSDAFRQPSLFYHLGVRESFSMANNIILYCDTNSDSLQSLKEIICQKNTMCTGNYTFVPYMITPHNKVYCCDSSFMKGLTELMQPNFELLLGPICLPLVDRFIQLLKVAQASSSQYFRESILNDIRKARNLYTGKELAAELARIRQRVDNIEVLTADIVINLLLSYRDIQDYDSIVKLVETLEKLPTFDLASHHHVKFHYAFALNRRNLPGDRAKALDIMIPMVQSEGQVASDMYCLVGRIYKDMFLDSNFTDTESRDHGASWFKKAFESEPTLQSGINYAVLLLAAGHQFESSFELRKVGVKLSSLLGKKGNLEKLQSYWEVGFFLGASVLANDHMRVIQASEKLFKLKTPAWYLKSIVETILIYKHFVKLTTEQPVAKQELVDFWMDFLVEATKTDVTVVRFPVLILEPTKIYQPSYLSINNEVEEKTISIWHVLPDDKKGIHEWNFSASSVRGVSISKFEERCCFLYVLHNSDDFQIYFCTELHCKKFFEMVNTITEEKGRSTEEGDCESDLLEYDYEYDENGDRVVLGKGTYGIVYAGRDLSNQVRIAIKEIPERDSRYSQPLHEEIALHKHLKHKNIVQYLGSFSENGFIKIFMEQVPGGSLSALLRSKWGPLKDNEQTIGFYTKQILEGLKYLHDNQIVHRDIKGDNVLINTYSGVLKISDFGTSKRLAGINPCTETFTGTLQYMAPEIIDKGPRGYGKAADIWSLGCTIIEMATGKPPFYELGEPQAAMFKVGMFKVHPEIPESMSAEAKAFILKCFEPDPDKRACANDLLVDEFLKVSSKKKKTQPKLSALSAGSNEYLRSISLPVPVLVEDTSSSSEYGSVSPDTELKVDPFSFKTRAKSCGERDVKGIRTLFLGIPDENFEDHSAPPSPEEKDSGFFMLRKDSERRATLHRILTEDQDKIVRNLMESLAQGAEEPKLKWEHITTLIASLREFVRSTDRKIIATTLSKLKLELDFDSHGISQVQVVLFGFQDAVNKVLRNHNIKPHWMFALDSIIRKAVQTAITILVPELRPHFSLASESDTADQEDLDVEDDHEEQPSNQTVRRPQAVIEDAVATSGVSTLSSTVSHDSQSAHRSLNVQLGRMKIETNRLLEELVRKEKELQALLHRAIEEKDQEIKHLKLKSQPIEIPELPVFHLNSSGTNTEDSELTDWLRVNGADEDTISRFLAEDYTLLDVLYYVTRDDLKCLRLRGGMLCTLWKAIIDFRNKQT

ASK1 [2] = assay: Trx-induced ASK1 ubiquitination and degradation in transfected BAEC (Western blot, IP/anti-Ub); type: cell-based, Bovine; details: for ASK1 poly-ubiquitination / endogenous ASK1 protein level: BAEC transfected with Trx construct vs control vector; for endogenous ASK1 protein level: Western blot anti-ASK1
Description: Transfection Transfection of EC was performed by Lipofectamine2000 according to manufacturer's protocol (Gibco). Cells were cultured at 90% confluence in 6-well plates and were transfected with total 4 μg plasmid constructs as indicated. Cells were harvested at 36-48 h post-transfection and cell lysates were used for protein assays.
as §1
Trx induces ASK1 ubiquitination and degradation in EC. To determine if Trx affects ASK1 protein stability, BAEC were transfected with Trx-expressing plasmid or a control vector (VC) with Lipofactamine2000. Transfection efficiency was determined by transfection of a GFP construct under a fluorescence microscope and usually reached 90% in BAEC and 10% in HUVEC. The high transfection efficiency in BAEC allowed us to examine effects of transgene on endogenous ASK1. Endogenous ASK1 was determined by Western blot with anti-ASK1. […] The high molecular bands are usually ubiquitination of target proteins for degradation (Laney J D et al. Substrate targeting in the ubiquitin system. Cell 97:427-30 (1999)). […] The ubiquitination of ASK1 was also confirmed by co-expression of ASK1 and HA-tag Ub (Treier et al. Ubiquitin-dependent c-Jun degradation in vivo is mediated by the delta domain. Cell 78:787-98 (1994)).

Molecule | ASK1-ΔN-induced apoptosis (BAEC) | inhibitory effect on ASK1-induced apoptosis under TNF treatment (BAEC) | association of Flag-Trx with HA-ASK1 after TNF treatment (ASK1 [1]) | binding of Flag-Trx to HA-ASK1 (ASK1 [1]) | ubiquitination and degradation of ASK1-ΔN (ASK1 [2]; BAEC co-transfected with ASK1-ΔN (lacks N-terminal Trx-binding domain)) | ASK1 poly-ubiquitination (ASK1 [2]) | endogenous ASK1 protein level (ASK1 [2]) | endogenous ASK1 protein level (ASK1 [2]; listed as Trx) | ASK1 poly-ubiquitination (ASK1 [2]; listed as Trx)
B1 | did not inhibit | diminished the inhibitory effect | completely dissociated | bound to ASK1 | did not induce ubiquitination and degradation | increased ASK1 poly-ubiquitination | decrease in ASK1 protein | decreased protein level of ASK1 | significantly increased ASK1 ubiquitination
B2 | – | retained their inhibitory effects | not reduced | bound to ASK1 | – | increased ASK1 poly-ubiquitination | decrease in ASK1 protein | – | –
B3 | – | retained their inhibitory effects | not reduced | bound to ASK1 | – | increased ASK1 poly-ubiquitination | decrease in ASK1 protein | – | –
